Test results as given in the supplement of paper PMC10126150.
± gives the standard deviation of the averaged measurements.

System: ATP
Test: switch fluorescence ratio, 500 uM ATP over buffer (Cy3 cluster intensity, sum of 5 cycles each) (fold (ratio)); higher = stronger signal-on switching upon ATP binding; sequences stand for … in TCGTCGGCAGCGTCAGATGTGTATAAGAGACAGTTTTTTTTTTTTTTTTTTTTTTTTT…TC
Conditions: aptamer strand: ATP DNA aptamer (quencher-CACCTGGGGGAGTATTGCGGAGGAAGG + anchor), 100 nM annealed; ATP concentration: 500 uM
Outline: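 Clusters carrying Cy3-labelled switching strands on a modified Illumina MiSeq flow-cell were annealed to 100 nM quencher-labelled ATP aptamer and imaged in selection buffer. They were imaged again after 15 min with 500 uM ATP at 22 °C, over five buffer/ATP cycles with NaOH stripping and re-annealing in between. For each cluster, the fluorescence ratio is the summed Cy3 intensity of the target cycles divided by that of the buffer cycles, averaged per switch-domain sequence. Clusters outside 100-1000 RFU were left out.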
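Also: ATP exposure 15 min at 22 °C before imaging.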

GGGTTAATTC
switch fluorescence ratio: 1.03 ± 0.088

GGGTTACTGT
switch fluorescence ratio: 0.985 ± 0.012

GGGTTAGGAT
switch fluorescence ratio: 0.98 ± 0.029

GGGTTAGGTC
switch fluorescence ratio: 1.02 ± 0.013

GGGTTAGTAG
switch fluorescence ratio: 1 ± 0.017

GGGTTAGTGG
switch fluorescence ratio: 0.976 ± 0.032

GGGTTATGAA
switch fluorescence ratio: 0.994 ± 0.022

GGGTTATGGT
switch fluorescence ratio: 0.998 ± 0.028

GGGTTATTGG
switch fluorescence ratio: 0.991 ± 0.04

GGGTTATTTC
switch fluorescence ratio: 1.02 ± 0.023

GGGTTCAAAG
switch fluorescence ratio: 0.9818 ± 0.006

GGGTTCAAGG
switch fluorescence ratio: 0.995 ± 0.048

GGGTTCAGGT
switch fluorescence ratio: 1.0068 ± 0.00055

GGGTTCAGTG
switch fluorescence ratio: 0.982 ± 0.026

GGGTTCATGG
switch fluorescence ratio: 1.01 ± 0.047

GGGTTCATTT
switch fluorescence ratio: 1.019 ± 0.0015

GGGTTCCAGG
switch fluorescence ratio: 1.26 ± 0.098

GGGTTCGGTG
switch fluorescence ratio: 1.01 ± 0.039

GGGTTCTATT
switch fluorescence ratio: 1 ± 0.014

GGGTTCTTC
switch fluorescence ratio: 1.05 ± 0.1

GGGTTCTTGT
switch fluorescence ratio: 1.04 ± 0.057

GGGTTCTTTA
switch fluorescence ratio: 0.997 ± 0.048

GGGTTGACCT
switch fluorescence ratio: 1.07 ± 0.067

GGGTTGAGGT
switch fluorescence ratio: 0.9843 ± 0.0092

GGGTTGATAG
switch fluorescence ratio: 1.01 ± 0.021

GGGTTGATCG
switch fluorescence ratio: 0.9875 ± 0.0046

GGGTTGCAAC
switch fluorescence ratio: 1.24 ± 0.32

GGGTTGCTGG
switch fluorescence ratio: 1 ± 0.03

GGGTTGCTTA
switch fluorescence ratio: 0.99 ± 0.023

GGGTTGGAAT
switch fluorescence ratio: 0.9878 ± 0.003

GGGTTGGGG
switch fluorescence ratio: 0.995 ± 0.048

GGGTTGGGGA
switch fluorescence ratio: 1.01 ± 0.025

GGGTTGTCTG
switch fluorescence ratio: 0.961 ± 0.063

GGGTTGTTGC
switch fluorescence ratio: 1 ± 0.037

GGGTTTAGAC
switch fluorescence ratio: 0.982 ± 0.032

GGGTTTATCT
switch fluorescence ratio: 0.986 ± 0.039

GGGTTTCGAA
switch fluorescence ratio: 0.9702 ± 0.0018

GGGTTTCGAG
switch fluorescence ratio: 1.04 ± 0.016

GGGTTTCGAT
switch fluorescence ratio: 0.984 ± 0.024

GGGTTTCGTG
switch fluorescence ratio: 0.993 ± 0.015

GGGTTTCTCT
switch fluorescence ratio: 0.994 ± 0.032

GGGTTTGAGA
switch fluorescence ratio: 1.005 ± 0.0042

GGGTTTGGGG
switch fluorescence ratio: 0.988 ± 0.022

GGGTTTGTA
switch fluorescence ratio: 0.965 ± 0.04

GGGTTTGTAC
switch fluorescence ratio: 1.13 ± 0.12

GGGTTTGTGT
switch fluorescence ratio: 1.01 ± 0.019

GGGTTTTATT
switch fluorescence ratio: 0.981 ± 0.036

GGGTTTTCGA
switch fluorescence ratio: 1.014 ± 0.0011

GGGTTTTCGT
switch fluorescence ratio: 0.9538 ± 0.0032

GGGTTTTTAC
switch fluorescence ratio: 1.03 ± 0.033

GGGTTTTTGG
switch fluorescence ratio: 0.997 ± 0.032

GGGTTTTTTT
switch fluorescence ratio: 0.998 ± 0.044

GGTAAAAGTC
switch fluorescence ratio: 1.01 ± 0.012

GGTAAAGCAT
switch fluorescence ratio: 1.027 ± 0.006

GGTAACGTTC
switch fluorescence ratio: 0.989 ± 0.015

GGTAAGGGGA
switch fluorescence ratio: 0.991 ± 0.033

GGTAAGTGTT
switch fluorescence ratio: 1.003 ± 0.0044

GGTAATAGAG
switch fluorescence ratio: 0.987 ± 0.05

GGTAATGGCA
switch fluorescence ratio: 1.01 ± 0.039

GGTAATTTAG
switch fluorescence ratio: 1.02 ± 0.015

GGTAATTTGA
switch fluorescence ratio: 0.989 ± 0.024

GGTAATTTTC
switch fluorescence ratio: 1.11 ± 0.18

GGTACAAGG
switch fluorescence ratio: 1.01 ± 0.029

GGTACAGGAC
switch fluorescence ratio: 1.06 ± 0.047

GGTACAGGGC
switch fluorescence ratio: 1.065 ± 0.0073

GGTACCACTT
switch fluorescence ratio: 0.992 ± 0.039

GGTACGGGCC
switch fluorescence ratio: 1.011 ± 0.01

GGTACGTCGG
switch fluorescence ratio: 0.979 ± 0.048

GGTACTGGAC
switch fluorescence ratio: 1.087 ± 0.0021

GGTAGACTTT
switch fluorescence ratio: 0.967 ± 0.017

GGTAGGCGAA
switch fluorescence ratio: 0.9775 ± 0.0013

GGTAGGTCGT
switch fluorescence ratio: 1.02 ± 0.074

GGTAGGTTGC
switch fluorescence ratio: 1.03 ± 0.013

GGTAGTAGAT
switch fluorescence ratio: 1.01 ± 0.0072

GGTAGTAGGC
switch fluorescence ratio: 1.014 ± 0.0019

GGTAGTAGTG
switch fluorescence ratio: 1.0054 ± 0.00082

GGTAGTCGGG
switch fluorescence ratio: 0.968 ± 0.014
